Test results reported in article PMC9646512.

Assays:
Conditions in all cases: all L-DNA (mirror image); ITC: 20 mM HEPES-NaOH, 150 mM NaCl, 5 mM KCl, 2 mM MgCl2, 1 mM CaCl2, pH 7.4, 25 C; EMSA: same plus 0.05% Tween 20 and 10% glycerol, room temperature 30 min …
[1] = biological target: T1, native human alpha-thrombin (Homo sapiens) (UniProt P00734+P00734); test: EMSA
[2] = biological target: native bovine alpha-thrombin (Bos taurus (bovine)) (UniProt P00735+P00735); test: ITC
[3] = biological target: T1, native human alpha-thrombin (Homo sapiens); test: ITC
[4] = biological target: T1, native human alpha-thrombin (Homo sapiens); test: thrombin activity inhibition

Sequence “ACGGAACGCGTTTCAAGACTACCGTGTTTGTTCCGT [Cy5-L-9-1t aptamer]” has a Kd [1] of 0.021 µM.
Sequence “ACGGAACGCGTTTCAAGACTACCGTGTTTGTTCCGT [L-9-1t aptamer]” has a Kd [2] of 1.03 µM and a Kd [3] of 0.039 µM.
“CGGATCCAGTTACGGAACGCGTTTCAAGACTACCGTGTTTGTTCCGTTCATTCAGTAAGCTTCGG [L-9-1 aptamer]” showed a Kd [3] of 0.029 µM.
Work on “CGGATCCAGTTACGGATGAACTTGTTGAAACCCAACGGGAGAATCGTTCATTCAGTAAGCTTCGG [L-9-2 aptamer]” yielded a Kd [3] of 0.168 µM and an IC50 [4] of 0.317 µM.
“CGGATCCAGTTACGGATGAACTTGTTGAAACCCAACGGGAGCCTCGTTCATTCAGTAAGCTTCGGTGG [L-13 aptamer]” gave a Kd [3] of 0.022 µM and an IC50 [4] of 0.027 µM.
With “GATGAACTTGTTGAAACCCAACGGGAGAATCGTTCATT [Cy5-L-9-2t aptamer]” the Kd [1] was 0.355 µM.
“GATGAACTTGTTGAAACCCAACGGGAGAATCGTTCATT [L-9-2t aptamer]” was tested, and the Kd [2] was 0.426 µM, the Kd [3] was 0.251 µM and the IC50 [4] was 0.479 µM.
Sequence “GATGAACTTGTTGAAACCCAACGGGAGCCTCGTTCATT [Cy5-L-13t aptamer]” has a Kd [1] of 0.028 µM.
“GATGAACTTGTTGAAACCCAACGGGAGCCTCGTTCATT [L-13t aptamer]” gave a Kd [2] of 0.34 µM, a Kd [3] of 0.034 µM and an IC50 [4] of 0.046 µM.
Work on “GGAACGCGTTTCAAGACTACCGTGTTTGTTCC [L-9-1t' aptamer]” yielded a Kd [3] of 0.111 µM.
